The source of these data is patent US20240261333A1, “NOVEL TARGETS FOR ENHANCING ANTI-TUMOR IMMUNITY” (THE BROAD INSTITUTE, INC., priority 2021, published 2024).

First the molecules themselves.
T1: B3GNT2 (Homo sapiens, UniProt Q9NY97)
T1 construct: The respective ORFs of candidate genes [CD274 (NM_014143), MCL1 (NM_021960), JUNB (NM_002229), and B3GNT2 (NM_006577)] were synthesized; expressed in transfected cells; host or cells: A375 melanoma cells (lentiviral ORF overexpression)
T1 sequence (Q9NY97 1-397): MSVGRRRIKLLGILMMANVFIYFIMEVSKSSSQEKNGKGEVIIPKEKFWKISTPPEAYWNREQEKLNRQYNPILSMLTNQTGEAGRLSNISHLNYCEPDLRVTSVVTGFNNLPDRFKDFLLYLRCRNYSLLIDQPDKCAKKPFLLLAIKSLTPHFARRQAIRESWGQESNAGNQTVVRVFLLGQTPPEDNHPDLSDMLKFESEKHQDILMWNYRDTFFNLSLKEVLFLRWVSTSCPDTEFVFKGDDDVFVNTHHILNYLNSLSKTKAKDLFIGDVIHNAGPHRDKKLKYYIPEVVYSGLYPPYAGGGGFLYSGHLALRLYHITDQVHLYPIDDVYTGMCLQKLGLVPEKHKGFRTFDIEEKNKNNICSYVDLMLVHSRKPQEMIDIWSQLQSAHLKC

B1: CALR (protein)
chain: EPAVYFKEQFLDGDGWTSRWIESKHKSDFGKFVLSSGKFYGDEEKDKGLQTSQDARFYALSASFEPFSNKGQTLVVQFTVKHEQNIDCGGGYVKLFPNSLDQTDMHGDSEYNIMFGPDICGPGTKKVHVIFNYKGKNVLINKDIRCKDDEFTHLYTLIVRPDNTYEVKIDNSQVESGSLEDDWDFLPPKKIKDPDASKPEDWDERAKIDDPTDSKPEDWDKPEHIPDPDAKKPEDWDEEMDGEWEPPVIQNPEYKGEWKPRQIDNPDYKGTWIHPEIDNPEYSPDPSIYAYDNFGVLGLDLWQVKSGTIFDNFLITNDEAYAEEFGNETWGVTKAAEKQMKDKQDEEQRLKEEEEDKKRKEEEEAEDKEDDEDKDEDEEDEEDKEEDEEEDVPGQAKDEL
B2: TGM3 (protein)
chain: AALGVQSINWQTAFNRQAHHTDKFSSQELILRRGQNFQVLMIMNKGLGSNERLEFIVSTGPYPSESAMTKAVFPLSNGSSGGWSAVLQASNGNTLTISISSPASAPIGRYTMALQIFSQGGISSVKLGTFILLFNPWLNVDSVFMGNHAEREEYVQEDAGIIFVGSTNRIGMIGWNFGQFEEDILSICLSILDRSLNFRRDAATDVASRNDPKYVGRVLSAMINSNDDNGVLAGNWSGTYTGGRDPRSWNGSVEILKNWKKSGFSPVRYGQCWVFAGTLNTALRSLGIPSRVITNFNSAHDTDRNLSVDVYYDPMGNPLDKGSDSVWNFHVWNEGWFVRSDLGPSYGGWQVLDATPQERSQGVFQCGPASVIGVREGDVQLNFDMPFIFAEVNADRITWLYDNTTGKQWKNSVNSHTIGRYISTKAVGSNARMDVTDKYKYPEGSDQERQVFQKALGKLKPNTPFAATSSMGLETEEQEPSIIGKLKVAGMLAVGKEVNLVLLLKNLSRDTKTVTVNMTAWTIIYNGTLVHEVWKDSATMSLDPEEEAEHPIKISYAQYEKYLKSDNMIRITAVCKVPDESEVVVERDIILDNPTLTLEVLNEARVRKPVNVQMLFSNPLDEPVRDCVLMVEGSGLLLGNLKIDVPTLGPKEGSRVRFDILPSRSGTKQLLADFSCNKFPAIKAMLSIDVAE
B3: MYL9 (protein)
chain: SSKRAKAKTTKKRPQRATSNVFAMFDQSQIQEFKEAFNMIDQNRDGFIDKEDLHDMLASLGKNPTDEYLEGMMSEAPGPINFTMFLTMFGEKLNGTDPEDVIRNAFACFDEEASGFIHEDHLRELLTTMGDRFTDEEVDEMYREAPIDKKGNFNYVEFTRILKHGAKDKDD
B4: FAM3C (protein)
chain: QVFEIKMDASLGNLFARSALDTAARSTKPPRYKCGISKACPEKHFAFKMASGAANVVGPKICLEDNVLMSGVKNNVGRGINVALANGKTGEVLDTKYFDMWGGDVAPFIEFLKAIQDGTIVLMGTYDDGATKLNDEARRLIADLGSTSITNLGFRDNWVFCGGKGIKTKSPFEQHIKNNKDTNKYEGWPEVVEMEGCIPQKQD
B5: PIP (protein)
chain: QDNTRKIIIKNFDIPKSVRPNDEVTAVLAVQTELKECMVVKTYLISSIPLQGAFNYKYTACLCDDNPKTFYWDFYTNRTVQIAAVVDVIRELGICPDDAAVIPIKNNRFYTIEILKVE
B6: FAM3A (protein)
chain: FPRIQQLFTSPESSVTAAPRARKYKCGLPQPCPEEHLAFRVVSGAANVIGPKICLEDKMLMSSVKDNVGRGLNIALVNGVSGELIEARAFDMWAGDVNDLLKFIRPLHEGTLVFVASYDDPATKMNEETRKLFSELGSRNAKELAFRDSWVFVGAKGVQNKSPFEQHVKNSKHSNKYEGWPEALEMEGCIPRRSTAS
B7: SLC25A4 (protein)
chain: GDHAWSFLKDFLAGGVAAAVSKTAVAPIERVKLLLQVQHASKQISAEKQYKGIIDCVVRIPKEQGFLSFWRGNLANVIRYFPTQALNFAFKDKYKQLFLGGVDRHKQFWRYFAGNLASGGAAGATSLCFVYPLDFARTRLAADVGKGAAQREFHGLGDCIIKIFKSDGLRGLYQGFNVSVQGIIIYRAAYFGVYDTAKGMLPDPKNVHIFVSWMIAQSVTAVAGLVSYPFDTVRRRMMMQSGRKGADIMYTGTVDCWRKIAKDEGAKAFFKGAWSNVLRGMGGAFVLVLYDEIKKYV
B8: PRDX2 (protein)
chain: ASGNARIGKPAPDFKATAVVDGAFKEVKLSDYKGKYVVLFFYPLDFTFVCPTEIIAFSNRAEDFRKLGCEVLGVSVDSQFTHLAWINTPRKEGGLGPLNIPLLADVTRRLSEDYGVLKTDEGIAYRGLFIIDGKGVLRQITVNDLPVGRSVDEALRLVQAFQYTDEHGEVCPAGWKPGSDTIKPNVDDSKEYFSKHN
B9: HYOU1 (protein)
chain: LAVMSVDLGSESMKVAIVKPGVPMEIVLNKESRRKTPVIVTLKENERFFGDSAASMAIKNPKATLRYFQHLLGKQADNPHVALYQARFPEHELTFDPQRQTVHFQISSQLQFSPEEVLGMVLNYSRSLAEDFAEQPIKDAVITVPVFFNQAERRAVLQAARMAGLKVLQLINDNTATALSYGVFRRKDINTTAQNIMFYDMGSGSTVCTIVTYQMVKTKEAGMQPQLQIRGVGFDRTLGGLEMELRLRERLAGLFNEQRKGQRAKDVRENPRAMAKLLREANRLKTVLSANADHMAQIEGLMDDVDFKAKVTRVEFEELCADLFERVPGPVQQALQSAEMSLDEIEQVILVGGATRVPRVQEVLLKAVGKEELGKNINADEAAAMGAVYQAAALSKAFKVKPFVVRDAVVYPILVEFTREVEEEPGIHSLKHNKRVLFSRMGPYPQRKVITFNRYSHDFNFHINYGDLGFLGPEDLRVFGSQNLTTVKLKGVGDSFKKYPDYESKGIKAHFNLDESGVLSLDRVESVFETLVEDSAEEESTLTKLGNTISSLFGGGTTPDAKENGTDTVQEEEESPAEGSKDEPGEQVELKEEAEAPVEDGSQPPPPEPKGDATPEGEKATEKENGDKSEAQKPSEKAEAGPEGVAPAPEGEKKQKPARKRRMVEEIGVELVVLDLPDLPEDKLAQSVQKLQDLTLRDLEKQEREKAANSLEAFIFETQDKLYQPEYQEVSTEEQREEISGKLSAASTWLEDEGVGATTVMLKEKLAELRKLCQGLFFRVEERKKWPERLSALDNLLNHSSMFLKGARLIPEMDQIFTEVEMTTLEKVINETWAWKNATLAEQAKLPATEKPVLLSKDIEAKMMALDREVQYLLNKAKFTKPRPRPKDKNGTRAEPPLNASASDQGEKVIPPAGQTEDAEPISEPEKVETGSEPGDTEPLELGGPGAEPEQKEQSTGQKRPLKNDEL
B10: SLC25A13 (protein)
chain: AAAKVALTKRADPAELRTIFLKYASIEKNGEFFMSPNDFVTRYLNIFGESQPNPKTVELLSGVVDQTKDGLISFQEFVAFESVLCAPDALFMVAFQLFDKAGKGEVTFEDVKQVFGQTTIHQHIPFNWDSEFVQLHFGKERKRHLTYAEFTQFLLEIQLEHAKQAFVQRDNARTGRVTAIDFRDIMVTIRPHVLTPFVEECLVAAAGGTTSHQVSFSYFNGFNSLLNNMELIRKIYSTLAGTRKDVEVTKEEFVLAAQKFGQVTPMEVDILFQLADLYEPRGRMTLADIERIAPLEEGTLPFNLAEAQRQQKASGDSARPVLLQVAESAYRFGLGSVAGAVGATAVYPIDLVKTRMQNQRSTGSFVGELMYKNSFDCFKKVLRYEGFFGLYRGLLPQLLGVAPEKAIKLTVNDFVRDKFMHKDGSVPLAAEILAGGCAGGSQVIFTNPLEIVKIRLQVAGEITTGPRVSALSVVRDLGFFGIYKGAKACFLRDIPFSAIYFPCYAHVKASFANEDGQVSPGSLLLAGAIAGMPAASLVTPADVIKTRLQVAARAGQTTYSGVIDCFRKILREEGPKALWKGAGARVFRSSPQFGVTLLTYELLQRWFYIDFGGVKPMGSEPVPKSRINLPAPNPDHVGGYKLAVATFAGIENKFGLYLPLFKPSVSTSKAIGGGP

In the first test the target is T1, B3GNT2. Description: Co-IP of FLAG-tagged B3GNT2 followed by mass spectrometry. In kind it is cell-based. As to conditions: Co-IP with FLAG antibody, C-terminally FLAG-tagged B3GNT2; mass spectrometry count, unit not given. The arrangement: C-term IgG / C-term flag: unit not given here. The method, boiled down: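 FLAG-tagged B3GNT2 immunoprecipitated from cell lysate (HEPES, 1% Triton X-100, 150 mM NaCl) with anti-FLAG versus […], overnight at 4° C, then captured on Protein A/G magnetic beads for 4 h. Two biological replicates per condition. Peptides fractionated and analyzed by nano-LC on an Orbitrap Elite in data-dependent mode.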
B1 displayed a C-term flag of 20.
Still for that read-out and setting: for B2 the value was 5.
The same measure, in the same setting: as for B3, the figure is 0; as for B4, 23; as for B5, 3.
In turn, B6 yielded a C-term flag of 18.
In turn, B7 registered a C-term flag of 14.
B8: the C-term flag was 5.
The same measure, in the same setting: for B9 the value was 27; for B10, 0.

Still in this test, the particulars now being: Co-IP with FLAG antibody, N-terminally FLAG-tagged B3GNT2; mass spectrometry count, unit not given.
As to B1, the “N-term FLAG” value is listed as 6.
On the same count and under the same terms, as for B2, the figure is 9.
In the case of B3, the “N-term FLAG” value is on record as 3.
Still for that read-out and setting: for B4 the value was 2.
Still for that read-out and setting: as for B5, the figure is 4.
On the same count and under the same terms, as for B6, the figure is 9; as for B7, 9.
With B8, the “N-term FLAG” value turned out to be 9.
Turning to B9, the “N-term FLAG” value worked out at 0.
On to B10, for which the “N-term FLAG” value came to 3.

The test is the same for the next values; noted with them: Co-IP with IgG control antibody, C-terminally FLAG-tagged B3GNT2; mass spectrometry count, unit not given.
B1: the “C-term IgG” value was 0.
As for B2, the “C-term IgG” value is listed as 3.
Still for that read-out and setting: for B3 the value was 0; for B4, 0; for B5, 2.
Same read-out and setting: as for B6, the figure is 0; as for B7, 0.
Still for that read-out and setting: as for B8, the figure is 0; as for B9, 0; as for B10, 0.

Still in this test, the particulars now being: Co-IP with IgG control antibody, N-terminally FLAG-tagged B3GNT2; mass spectrometry count, unit not given.
In the case of B1, the “N-term IgG” value is 0.
Still for that read-out and setting: for B2 the value was 2; for B3, 0; for B4, 0.
Same read-out and setting: as for B5, the figure is 0.
Same read-out and setting: as for B6, the figure is 0; as for B7, 0.
Take B8: the “N-term IgG” value is listed as 5.
On the same count and under the same terms, as for B9, the figure is 0.
Still for that read-out and setting: as for B10, the figure is 0.
